Results published in doi:10.1101/459156.

Biological target: Hexahistidine-tagged ALIX protein (UniProt Q8WUM4)
Assay: MST

Chain of UniProt Q8WUM4 (Q8WUM4 whole entry): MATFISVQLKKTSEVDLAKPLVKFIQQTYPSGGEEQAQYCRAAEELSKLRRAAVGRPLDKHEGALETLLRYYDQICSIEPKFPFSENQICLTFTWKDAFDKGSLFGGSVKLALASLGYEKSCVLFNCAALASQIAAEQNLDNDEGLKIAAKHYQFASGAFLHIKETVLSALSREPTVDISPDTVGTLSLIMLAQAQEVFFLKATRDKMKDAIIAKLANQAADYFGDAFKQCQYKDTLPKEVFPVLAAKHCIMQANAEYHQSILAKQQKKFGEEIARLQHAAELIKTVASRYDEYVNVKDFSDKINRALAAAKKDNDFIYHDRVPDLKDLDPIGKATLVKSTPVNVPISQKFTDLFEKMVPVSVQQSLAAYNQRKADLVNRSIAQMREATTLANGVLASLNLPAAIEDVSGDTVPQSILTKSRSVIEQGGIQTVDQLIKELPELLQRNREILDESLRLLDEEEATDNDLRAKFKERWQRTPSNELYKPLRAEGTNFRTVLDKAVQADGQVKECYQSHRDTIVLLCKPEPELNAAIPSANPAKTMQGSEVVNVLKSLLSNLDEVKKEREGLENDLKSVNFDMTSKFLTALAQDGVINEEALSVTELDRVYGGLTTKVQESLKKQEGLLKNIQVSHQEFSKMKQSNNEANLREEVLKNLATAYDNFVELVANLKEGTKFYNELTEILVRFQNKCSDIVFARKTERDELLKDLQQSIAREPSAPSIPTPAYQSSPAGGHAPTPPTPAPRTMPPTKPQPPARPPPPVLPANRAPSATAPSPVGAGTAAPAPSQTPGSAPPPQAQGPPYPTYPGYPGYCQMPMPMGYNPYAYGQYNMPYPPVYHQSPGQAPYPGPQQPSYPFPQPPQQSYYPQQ

Row | Substance | Kd [nM]
1 | HIV-1CWT Gag late domain motif peptide | 290
2 | HIV-1BWT Gag late domain motif peptide | 32
